Assay results: PMC523230, “Dictyostelium Myosin Bipolar Thick Filament Formation: Importance of Charge and Specific Domains of the Myosin Rod” (PLoS Biology, 2004)

Legend:
P08799 = assay: sedimentation assembly assay; self-assembly into filaments or paracrystals; 10 uM protein added to an equal volume, 10 mM imidazole pH 7.5, 0.1 mM EDTA, 1 mM DTT, 0-250 mM NaCl, on ice at least 30 min, 132,000 x g 15 min 4 °C; supernatant and pellet by SDS-PAGE; settings: other: sedimentation assembly assay
[1] = target: the molecule itself; assay: as above
[2] = target: the molecule itself; assay: AUC; sedimentation equilibrium; step: single chains to two-stranded coiled coil; 10.5-52 uM protein, 10 mM Tris pH 7.4, 0.1 mM EDTA, 500 mM NaCl, 10 °C, 10,000 rpm; fit to a single non-associating ideal species

B1: extended AD (2xAsp) (protein)
chain: MNVEFIRKKDAEIDDLRARLDRETESRIKSDEDKKNTRKQFADLEAKVEEAQREVVTIDRLKKKLESDIIDLSTQLDTETKSRIKIEKSKKKLEQTLAERRAAEEGSSKAADEEIRKQVWQEVDELRAQLDSERAALNASEKKIKSLVAEVDEVKEQLEDEILAKDKLVKAKRALEVELEEVRDQLEEEEDSRSELEDSKRRLTTEVEDIKKKYDAEVEQNTKLDEAKKKLTDDVDTLKKQLEDEKKKLNESERAKKRLESENEDFLAKLDAEVKNRSRAEKDRKKYEKDLKDDKYKLNDEAADKTQTEIG
fold difference in solubility against extended AD (2xThr) (P08799): extended AD (2xThr) and extended AD (2xAsp) show a four-fold difference in solubility

B2: extended AD (2xThr) (domain or fragment, Dictyostelium discoideum)
chain: MNVEFIRKKDAEIDDLRARLDRETESRIKSDEDKKNTRKQFADLEAKVEEAQREVVTIDRLKKKLESDIIDLSTQLDTETKSRIKIEKSKKKLEQTLAERRAAEEGSSKAADEEIRKQVWQEVDELRAQLDSERAALNASEKKIKSLVAEVDEVKEQLEDEILAKDKLVKAKRALEVELEEVRDQLEEEEDSRSELEDSKRRLTTEVEDIKKKYDAEVEQNTKLDEAKKKLTDDVDTLKKQLEDEKKKLNESERAKKRLESENEDFLAKLDAEVKNRSRAEKDRKKYEKDLKDTKYKLNDEAATKTQTEIG
notes: N-terminal methionine added before the myosin residues; Dictyostelium myosin-II heavy chain, a.a; 1,531-1,840; also called headless extended AD (2xThr); source: E. coli BL21-CodonPlus (DE3)-RIL, purified (boiling, DEAE, Superdex 200, Mono Q)
binding result [1]: binds

B3: AD (1xThr) myosin-II assembly domain (domain or fragment, Dictyostelium discoideum)
chain: MNVEFIRKKDAEIDDLRARLDRETESRIKSDEDKKNTRKQFADLEAKVEEAQREVVTIDRLKKKLESDIIDLSTQLDTETKSRIKIEKSKKKLEQTLAERRAAEEGSSKAADEEIRKQVWQEVDELRAQLDSERAALNASEKKIKSLVAEVDEVKEQLEDEILAKDKLVKAKRALEVELEEVRDQLEEEEDSRSELEDSKRRLTTEVEDIKKKYDAEVEQNTKLDEAKKKLTDDVDTLKKQLEDEKKKLNESERAKKRLESENEDFLAKLDAEVKNRSRAEKDRKKYEKDLKDTK
notes: N-terminal methionine added before the myosin residues; Dictyostelium myosin-II heavy chain, assembly domain, a.a; 1,531-1,824; also called headless AD (1xThr); 34-kDa assembly domain; source: E. coli BL21-CodonPlus (DE3)-RIL, purified (boiling, DEAE, Superdex 200, Mono Q)
binding result [1]: binds

B4: AD (1xAsp) myosin-II assembly domain (domain or fragment, Dictyostelium discoideum)
chain: MNVEFIRKKDAEIDDLRARLDRETESRIKSDEDKKNTRKQFADLEAKVEEAQREVVTIDRLKKKLESDIIDLSTQLDTETKSRIKIEKSKKKLEQTLAERRAAEEGSSKAADEEIRKQVWQEVDELRAQLDSERAALNASEKKIKSLVAEVDEVKEQLEDEILAKDKLVKAKRALEVELEEVRDQLEEEEDSRSELEDSKRRLTTEVEDIKKKYDAEVEQNTKLDEAKKKLTDDVDTLKKQLEDEKKKLNESERAKKRLESENEDFLAKLDAEVKNRSRAEKDRKKYEKDLKDDK
notes: N-terminal methionine added before the myosin residues; Dictyostelium myosin-II heavy chain, assembly domain, a.a; 1,531-1,824; also called headless AD (1xAsp); source: E. coli BL21-CodonPlus (DE3)-RIL, purified (boiling, DEAE, Superdex 200, Mono Q)
binding result [1]: binds

B5: Ala1-Ala2 (2xThr) (domain or fragment, Dictyostelium discoideum)
chain: MLDEIKRQYADVVSSRDKSVEQLKTLQAKNEELRNTAEEAEGQLDRAERSKKKAEFDLEEAVKNLEEETAKKVKAEKAMKKAETDYRSTKSELDDAKNVSSEQYVQIKRLNEELSELRSVLEEADERCNSAIKAKKTAESALESLKDEIDAANNAKAKAERKSKELEVRVAELEESLEDKSGTVNVEFIRKKDAEIDDLRARLDRETESRIKSDEDKKNTRKQFADLEAKVEEAQREVVTIDRLKKKLESDIIDLSTQLDTETKSRIKIEKSKKKLEQTLAERRAAEEGSSKAADEEIRKQVWQEVDELRAQLDSERAALNASEKKIKSLVAEVDEVKEQLEDEILAKDKLVKAKRALEVELEEVRDQLEEEEDSRSELEDSKRRLTTEVEDIKKKYDAEVEQNTKLDEAKKKLTDDVDTLKKQLEDEKKKLNESERAKKRLESENEDFLAKLDAEVKNRSRAEKDRKKYEKDLKDTKYKLNDEAATKTQTEIGAAKLEDQIDELRSKLEQEQAKATQADKSKKTLEGEIDNLRAQIEDEGKIKMRLEKEKRALEGELEELRETVEEAEDSKSEAEQSKRLVELELEDARRNLQKEIDAKEIAEDAKSNLQREIVEAKGR
notes: N-terminal methionine added before the myosin residues; Dictyostelium myosin-II heavy chain, a.a; 1,348-1,966 (Ala 1 through Ala 2); also called headless Ala1-Ala2 (2xThr); source: E. coli BL21-CodonPlus (DE3)-RIL, purified (boiling, DEAE, Superdex 200, Mono Q)
binding result [1]: binds

B6: AD-Cterm (3xAsp) myosin-II tail fragment (domain or fragment, Dictyostelium discoideum)
chain: MNVEFIRKKDAEIDDLRARLDRETESRIKSDEDKKNTRKQFADLEAKVEEAQREVVTIDRLKKKLESDIIDLSTQLDTETKSRIKIEKSKKKLEQTLAERRAAEEGSSKAADEEIRKQVWQEVDELRAQLDSERAALNASEKKIKSLVAEVDEVKEQLEDEILAKDKLVKAKRALEVELEEVRDQLEEEEDSRSELEDSKRRLTTEVEDIKKKYDAEVEQNTKLDEAKKKLTDDVDTLKKQLEDEKKKLNESERAKKRLESENEDFLAKLDAEVKNRSRAEKDRKKYEKDLKDDKYKLNDEAADKTQTEIGAAKLEDQIDELRSKLEQEQAKATQADKSKKTLEGEIDNLRAQIEDEGKIKMRLEKEKRALEGELEELRETVEEAEDSKSEAEQSKRLVELELEDARRNLQKEIDAKEIAEDAKSNLQREIVEAKGRLEEESIARTNSDRSRKRLEAEIDALTAQVDAEQKAKNQQIKENKKIETELKEYRKKFGESEKDKTKEFLVVEKLETDYKRAKKEAADEQQQRLTVENDLRKHLSEISLLKDAIDKLQRDHDKTKRELETETASKIEMQRKMADFFGGFKA
notes: N-terminal methionine added before the myosin residues; Dictyostelium myosin-II heavy chain, a.a; 1,531-2,116, aspartic acids in place of the three threonine phosphorylation sites; Phosphomimetic; also called headless AD-Cterm (3xAsp); 3xAsp tail fragment; source: E. coli BL21-CodonPlus (DE3)-RIL, purified (boiling, DEAE, Superdex 200, Mono Q)
stoichiometry N [2]: 2
fold difference in solubility against AD-Cterm (3xThr) (P08799): eight-fold difference in solubility of full-length unphosphorylated and phosphorylated myosin, respectively, and AD-Cterm (3xThr) and AD-Cterm (3xAsp), respectively

B7: AD-Cterm (3xThr) myosin-II tail fragment (domain or fragment, Dictyostelium discoideum)
chain: MNVEFIRKKDAEIDDLRARLDRETESRIKSDEDKKNTRKQFADLEAKVEEAQREVVTIDRLKKKLESDIIDLSTQLDTETKSRIKIEKSKKKLEQTLAERRAAEEGSSKAADEEIRKQVWQEVDELRAQLDSERAALNASEKKIKSLVAEVDEVKEQLEDEILAKDKLVKAKRALEVELEEVRDQLEEEEDSRSELEDSKRRLTTEVEDIKKKYDAEVEQNTKLDEAKKKLTDDVDTLKKQLEDEKKKLNESERAKKRLESENEDFLAKLDAEVKNRSRAEKDRKKYEKDLKDTKYKLNDEAATKTQTEIGAAKLEDQIDELRSKLEQEQAKATQADKSKKTLEGEIDNLRAQIEDEGKIKMRLEKEKRALEGELEELRETVEEAEDSKSEAEQSKRLVELELEDARRNLQKEIDAKEIAEDAKSNLQREIVEAKGRLEEESIARTNSDRSRKRLEAEIDALTAQVDAEQKAKNQQIKENKKIETELKEYRKKFGESEKTKTKEFLVVEKLETDYKRAKKEAADEQQQRLTVENDLRKHLSEISLLKDAIDKLQRDHDKTKRELETETASKIEMQRKMADFFGGFKA
notes: N-terminal methionine added before the myosin residues; Dictyostelium myosin-II heavy chain, a.a; 1,531-2,116 (assembly domain through C terminus); the assembly rows are about coiled coils joining into paracrystals; also called headless AD-Cterm (3xThr); wild-type tail fragment; source: E. coli BL21-CodonPlus (DE3)-RIL, purified (boiling, DEAE, Superdex 200, Mono Q)
stoichiometry N [2]: 2

B8: AD-Ala 2 (2xThr) (domain or fragment, Dictyostelium discoideum)
chain: MNVEFIRKKDAEIDDLRARLDRETESRIKSDEDKKNTRKQFADLEAKVEEAQREVVTIDRLKKKLESDIIDLSTQLDTETKSRIKIEKSKKKLEQTLAERRAAEEGSSKAADEEIRKQVWQEVDELRAQLDSERAALNASEKKIKSLVAEVDEVKEQLEDEILAKDKLVKAKRALEVELEEVRDQLEEEEDSRSELEDSKRRLTTEVEDIKKKYDAEVEQNTKLDEAKKKLTDDVDTLKKQLEDEKKKLNESERAKKRLESENEDFLAKLDAEVKNRSRAEKDRKKYEKDLKDTKYKLNDEAATKTQTEIGAAKLEDQIDELRSKLEQEQAKATQADKSKKTLEGEIDNLRAQIEDEGKIKMRLEKEKRALEGELEELRETVEEAEDSKSEAEQSKRLVELELEDARRNLQKEIDAKEIAEDAKSNLQREIVEAKGR
notes: N-terminal methionine added before the myosin residues; Dictyostelium myosin-II heavy chain, a.a; 1,531-1,966 (AD through Ala 2); also called headless AD-Ala2 (2xThr); source: E. coli BL21-CodonPlus (DE3)-RIL, purified (boiling, DEAE, Superdex 200, Mono Q)
binding result [1]: binds

B9: Ala1-Cterm (3xThr) (domain or fragment, Dictyostelium discoideum)
chain: MLDEIKRQYADVVSSRDKSVEQLKTLQAKNEELRNTAEEAEGQLDRAERSKKKAEFDLEEAVKNLEEETAKKVKAEKAMKKAETDYRSTKSELDDAKNVSSEQYVQIKRLNEELSELRSVLEEADERCNSAIKAKKTAESALESLKDEIDAANNAKAKAERKSKELEVRVAELEESLEDKSGTVNVEFIRKKDAEIDDLRARLDRETESRIKSDEDKKNTRKQFADLEAKVEEAQREVVTIDRLKKKLESDIIDLSTQLDTETKSRIKIEKSKKKLEQTLAERRAAEEGSSKAADEEIRKQVWQEVDELRAQLDSERAALNASEKKIKSLVAEVDEVKEQLEDEILAKDKLVKAKRALEVELEEVRDQLEEEEDSRSELEDSKRRLTTEVEDIKKKYDAEVEQNTKLDEAKKKLTDDVDTLKKQLEDEKKKLNESERAKKRLESENEDFLAKLDAEVKNRSRAEKDRKKYEKDLKDTKYKLNDEAATKTQTEIGAAKLEDQIDELRSKLEQEQAKATQADKSKKTLEGEIDNLRAQIEDEGKIKMRLEKEKRALEGELEELRETVEEAEDSKSEAEQSKRLVELELEDARRNLQKEIDAKEIAEDAKSNLQREIVEAKGRLEEESIARTNSDRSRKRLEAEIDALTAQVDAEQKAKNQQIKENKKIETELKEYRKKFGESEKTKTKEFLVVEKLETDYKRAKKEAADEQQQRLTVENDLRKHLSEISLLKDAIDKLQRDHDKTKRELETETASKIEMQRKMADFFGGFKA
notes: N-terminal methionine added before the myosin residues; Dictyostelium myosin-II heavy chain, a.a; 1,348-2,116 (Ala 1 through C terminus); also called headless Ala1-Cterm (3xThr); source: E. coli BL21-CodonPlus (DE3)-RIL, purified (boiling, DEAE, Superdex 200, Mono Q)
binding result [1]: binds
